# Test results: paper PMC5895073, “Cell polarity protein Spa2 coordinates Chs2 incorporation at the division site in budding yeast” (PLoS Genetics, 2018)
# T1: Strep-tag-Chs2-V377I-215-629 (S. cerevisiae, UniProt P14180 215-629, V377I)
# T1 construct: Chs2 (chitin synthase II), S. cerevisiae, residues 215-629 with the hypermorphic change V377I; also called Strep-tag-Chs2-215-629-V377I; source: E. coli Rosetta, in cell extract
# T1 sequence (looked up): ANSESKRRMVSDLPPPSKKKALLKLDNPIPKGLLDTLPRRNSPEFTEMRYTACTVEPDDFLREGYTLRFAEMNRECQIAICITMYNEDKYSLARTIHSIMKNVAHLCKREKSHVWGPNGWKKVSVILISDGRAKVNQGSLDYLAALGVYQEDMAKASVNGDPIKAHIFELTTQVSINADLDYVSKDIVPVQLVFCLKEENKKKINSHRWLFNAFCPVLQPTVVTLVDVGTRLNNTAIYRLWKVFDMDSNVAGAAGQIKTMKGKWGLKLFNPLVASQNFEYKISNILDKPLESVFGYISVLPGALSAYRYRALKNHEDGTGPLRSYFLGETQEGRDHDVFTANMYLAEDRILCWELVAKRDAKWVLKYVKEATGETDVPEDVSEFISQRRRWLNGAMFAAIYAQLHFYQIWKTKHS
# Molecular target: T1, Strep-tag-Chs2-V377I-215-629
# Test: pull-down; pairs of E. coli cultures mixed, one cell extract; Strep-tagged protein isolated on Strep-Tactin Superflow resin, eluted with 2.5 mM d-desthiobiotin; immunoblot with anti-Strep and anti-His
# Conditions: partners not purified
binder,measurement,value
"6His-tagged-Inn1 (natural protein, S. cerevisiae, UniProt P53901 1-409, looked up, Inn1, S. cerevisiae; also called 6His-Inn1; source: E. coli Rosetta, in cell extract) MSEEVWNGNQGILSVYVSKARDLPNLNKLDKQNVMLRLRIAHMTRASNTLHRAGQNPVFHYLEKFDITPEIKPLMYVEVYCDRRKKSPLPIGRCEIDLLNAIRADPKEGYCTWYELKRSGDEFAGTIFIELTFTPKVPRLNRDDLNKEMDRLDSSMAMRPIPPLPTESEYDYVHGSTMRQITPQCVSTSHEDKDEGQPYRNGNVFSMSSKSDTAVLANSNDPIILPPTFSASMGTTSTLETNDTAISNTSNTKFHFANLRKLKEKINIFKNPDSSTNNCQNESNKVDIEALQKAIGVTSLSYDEDDDDDDENDAFYSSSHRVSHNYNQPPLPPIPTRDDMSNYSSSRNTPLVRRDRPSRLDSSSPNSHPHPSGLNSPKLPPLPTTSNSNFNSRKNSMSPTRKRPPPRLS","amount of Inn1 co-purified, fold over that with Strep-tag-Chs2-215-629",~3 fold
